Measurements as given in US20250313643A1 (UNM RAINFOREST INNOVATIONS, published 2025).
Numbering of substitutions follows the chain as printed.

T1: CCKBR peptide
T1 construct: It may be the same as m3 or m4; also called target CCKBR peptide; target peptide (immunization and selection)
T1 peptide: CETPRIRGTGTRELE

B1: scFv77-2 hu HC2-LC3 (scFv)
scFv: MAQVQLVQSGAEVKKPGASVKVSCKASGFNIKDYYIHWVRQAPGQGLEWIGWIDPENGDTEYAPKFQGRATMTADTSISTAYMELSRLRSDDTAVYYCNAGGRFAYWGQGTLVTVSSGGGGSGGGGSGGGGSDIQMTQSPSTLSASVGDRVTITCKSSQSLLNSGNQKNYLAWYQQKPGKAPKLLIYGASTRESGVPSRFSGSGSGTEFTLTISSLQPDDFATYYCQNDHSYPYTFGGGTKVEIKENLYFQGAAALEHHHHHH
notes: also called humanized CCKBR scFv HC2-LC3; CCKBR hscFv HC2-LC3
B2: HC2-LC2 (scFv)
scFv (VH-linker-VL, with protease site and His tag): B1 scFv with T142S, E208D, D219E, V242L
notes: also called scFv77-2 hu HC2-LC2; scFv77-2 hu HC2-linker-LC2
B3: mscFv77-2 Parental (scFv, V domains shown)
VH: EVQLQQAGAELVRSGASVKLSCTASGFNIKDYYIHWVKQRPEQGLEWIGWIDPENGDTEYAPKFQGKATMTADTSSNTAYLQLSSLTSEDTAVYYCNAGGRFAYWGQGTLVTVSA
VL: DIVMTQSPSSLSVSAGEKVTMSCKSSQSLLNSGNQKNYLAWYQQKPGQPPKLLIYGASTRESGVPDRFTGSGSGTDFTLTISSVQAEDLAVYYCQNDHSYPYTFGGGTKLEIK
notes: Murine single-chain Fv; It has a kappa light chain; also called murine parent scFv; parental scFv

Columns and labels:
[1] = target: T2, human CCKBR extracellular peptide (human, UniProt P32239 39-53); assay: ELISA affinity measurement
T2 construct: domain: extracellular fragment of human CCK-BR; also called human peptide; human CCKBR peptide

[2] = target: T2, human CCKBR extracellular peptide; assay: Assay and target are not stated on the sheet. The Kd stands in the legend box of an in vivo plot. The text describes affinity measurement of the humanized variants against the human peptide.
[3] = target: T2, human CCKBR extracellular peptide; assay: indirect ELISA on human CCKBR peptide, OD450nm against nM scFv; column head 'Apparent kD (nM)'
CCKBR peptide = target: T1, CCKBR peptide; assay: ELISA (panel 'Binding Affinity by ELISA'), OD450nm against nM scFv. The coated peptide is not named in the panel.

Row | Binder | fold improvement in affinity compared with parental mscFv77-2 [1] | Kd [2] | Kd [3] | Kd (CCKBR peptide)
1 | B1 | > 25 fold | 3.1 nM | 4.3 nM | –
2 | B2 | – | 9.8 nM | – | –
3 | B3 | – | – | 109 nM | 195 nM
